Experimental data published in article PMC6205631, “Topological in vitro loading of the budding yeast cohesin ring onto DNA” (Life Science Alliance, 2018).
One block for each binder: values may come before it.

How the values were obtained:
Scc3 = target: T1, Scc3 (budding yeast, UniProt P40541 1-1150); assay: SEC; purified cohesin tetramer, 150 nM in cohesin loading buffer (35 mM Tris-HCl pH 7.0, 20 mM NaCl, 0.5 mM MgCl2, 0.5 mM ATP), run directly or after 120 min at 29°C on Superose 6 Increase 10/300 GL in R buffer (150 mM NaCl); UV absorbance; conditions: both partners purified
T1 construct: Scc3, budding yeast cohesin subunit; genomic DNA encoding Scc3; also called HEAT repeat subunit Scc3; source: co-purified (IgG agarose, heparin, Superose 6)
T1 sequence (looked up): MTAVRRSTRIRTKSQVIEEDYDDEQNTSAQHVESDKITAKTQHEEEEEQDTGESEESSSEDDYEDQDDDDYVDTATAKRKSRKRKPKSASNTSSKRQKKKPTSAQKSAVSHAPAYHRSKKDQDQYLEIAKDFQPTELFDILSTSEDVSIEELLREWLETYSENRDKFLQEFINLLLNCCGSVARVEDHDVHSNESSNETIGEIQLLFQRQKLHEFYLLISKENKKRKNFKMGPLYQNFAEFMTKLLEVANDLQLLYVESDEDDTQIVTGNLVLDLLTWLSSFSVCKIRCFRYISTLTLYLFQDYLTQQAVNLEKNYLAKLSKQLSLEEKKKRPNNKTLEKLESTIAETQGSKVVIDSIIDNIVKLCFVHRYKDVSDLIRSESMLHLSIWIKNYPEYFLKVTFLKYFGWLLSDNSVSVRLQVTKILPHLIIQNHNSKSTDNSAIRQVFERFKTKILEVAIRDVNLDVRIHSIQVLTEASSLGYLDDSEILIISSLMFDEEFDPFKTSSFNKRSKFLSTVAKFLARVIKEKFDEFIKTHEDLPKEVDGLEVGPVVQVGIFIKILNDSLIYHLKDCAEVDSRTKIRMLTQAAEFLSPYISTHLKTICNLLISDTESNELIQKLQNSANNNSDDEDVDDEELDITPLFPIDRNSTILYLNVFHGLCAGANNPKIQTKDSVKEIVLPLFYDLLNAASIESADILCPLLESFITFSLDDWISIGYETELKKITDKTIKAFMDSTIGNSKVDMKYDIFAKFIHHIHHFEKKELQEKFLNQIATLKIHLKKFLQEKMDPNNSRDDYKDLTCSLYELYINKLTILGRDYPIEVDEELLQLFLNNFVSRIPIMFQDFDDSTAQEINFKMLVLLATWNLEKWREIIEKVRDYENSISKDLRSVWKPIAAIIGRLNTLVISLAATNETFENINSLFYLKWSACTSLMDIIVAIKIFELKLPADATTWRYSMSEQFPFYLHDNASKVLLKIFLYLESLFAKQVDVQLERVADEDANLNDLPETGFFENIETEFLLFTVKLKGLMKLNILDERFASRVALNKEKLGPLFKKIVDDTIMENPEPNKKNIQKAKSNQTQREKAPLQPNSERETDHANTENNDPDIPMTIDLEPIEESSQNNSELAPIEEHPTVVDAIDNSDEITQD

Smc3 = target: T2, Smc3 (budding yeast, UniProt P47037 1-1230); assay: as above; conditions: both partners purified
T2 construct: Smc3, budding yeast cohesin subunit; Smc3-encoding genomic DNA; The expression strain is eco1 deleted; also called cohesin subunit Smc3; source: co-purified (IgG agarose, heparin, Superose 6)
T2 sequence (looked up): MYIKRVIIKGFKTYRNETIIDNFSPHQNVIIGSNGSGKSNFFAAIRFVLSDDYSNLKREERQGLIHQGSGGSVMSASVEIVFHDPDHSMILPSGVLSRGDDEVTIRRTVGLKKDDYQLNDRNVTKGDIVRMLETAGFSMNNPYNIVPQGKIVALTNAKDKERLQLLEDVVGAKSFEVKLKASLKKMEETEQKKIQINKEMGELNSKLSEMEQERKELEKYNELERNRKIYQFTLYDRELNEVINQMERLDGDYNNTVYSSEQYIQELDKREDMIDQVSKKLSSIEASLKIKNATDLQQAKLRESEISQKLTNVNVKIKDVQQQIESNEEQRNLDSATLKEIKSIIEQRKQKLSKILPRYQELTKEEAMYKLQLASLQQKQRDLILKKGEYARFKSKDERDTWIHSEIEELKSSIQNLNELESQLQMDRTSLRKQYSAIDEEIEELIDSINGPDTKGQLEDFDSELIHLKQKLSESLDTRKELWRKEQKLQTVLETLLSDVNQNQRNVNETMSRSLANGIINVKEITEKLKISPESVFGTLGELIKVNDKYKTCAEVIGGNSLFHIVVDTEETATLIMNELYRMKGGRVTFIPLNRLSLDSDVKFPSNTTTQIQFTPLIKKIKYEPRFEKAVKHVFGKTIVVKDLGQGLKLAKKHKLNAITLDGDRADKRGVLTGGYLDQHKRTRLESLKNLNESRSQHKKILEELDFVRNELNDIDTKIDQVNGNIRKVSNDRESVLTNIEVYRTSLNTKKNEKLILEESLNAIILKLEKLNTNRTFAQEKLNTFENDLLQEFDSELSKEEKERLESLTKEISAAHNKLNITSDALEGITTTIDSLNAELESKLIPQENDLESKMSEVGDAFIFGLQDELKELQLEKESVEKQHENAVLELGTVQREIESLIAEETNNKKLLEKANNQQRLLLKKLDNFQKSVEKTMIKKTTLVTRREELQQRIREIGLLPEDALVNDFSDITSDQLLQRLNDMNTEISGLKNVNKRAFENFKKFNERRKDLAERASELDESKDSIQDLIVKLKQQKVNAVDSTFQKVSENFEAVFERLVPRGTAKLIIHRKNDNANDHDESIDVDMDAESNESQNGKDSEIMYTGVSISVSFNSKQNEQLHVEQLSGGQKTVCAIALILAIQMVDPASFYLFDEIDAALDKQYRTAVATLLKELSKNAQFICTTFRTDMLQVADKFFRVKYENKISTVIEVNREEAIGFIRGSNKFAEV

binding result (Scc3): binds
B1: Scc1 (natural protein, budding yeast, UniProt Q12158 1-566, looked up)
chain: MVTENPQRLTVLRLATNKGPLAQIWLASNMSNIPRGSVIQTHIAESAKEIAKASGCDDESGDNEYITLRTSGELLQGIVRVYSKQATFLLTDIKDTLTKISMLFKTSQKMTSTVNRLNTVTRVHQLMLEDAVTEREVLVTPGLEFLDDTTIPVGLMAQENSMERKVQGAAPWDTSLEVGRRFSPDEDFEHNNLSSMNLDFDIEEGPITSKSWEEGTRQSSRNFDTHENYIQDDDFPLDDAGTIGWDLGITEKNDQNNDDDDNSVEQGRRLGESIMSEEPTDFGFDLDIEKEAPAGNIDTITDAMTESQPKQTGTRRNSKLLNTKSIQIDEETENSESIASSNTYKEERSNNLLTPQPTNFTTKRLWSEITESMSYLPDPILKNFLSYESLKKRKIHNGREGSIEEPELNVSLNLTDDVISNAGTNDNSFNELTDNMSDFVPIDAGLNEAPFPEENIIDAKTRNEQTTIQTEKVRPTPGEVASKAIVQMAKILRKELSEEKEVIFTDVLKSQANTEPENITKREASRGFFDILSLATEGCIGLSQTEAFGNIKIDAKPALFERFINA
notes: Scc1, budding yeast cohesin kleisin subunit; genomic DNA encoding Scc1; also called kleisin subunit Scc1; source: co-purified (IgG agarose, heparin, Superose 6); not shown: two tandem protein A tags, C-terminal, kept

binding result (Smc3): binds
B2: Smc1 (natural protein, budding yeast, UniProt P32908 1-1225, looked up)
chain: MGRLVGLELSNFKSYRGVTKVGFGESNFTSIIGPNGSGKSNMMDAISFVLGVRSNHLRSNILKDLIYRGVLNDENSDDYDNEGAASSNPQSAYVKAFYQKGNKLVELMRIISRNGDTSYKIDGKTVSYKDYSIFLENENILIKAKNFLVFQGDVEQIAAQSPVELSRMFEEVSGSIQYKKEYEELKEKIEKLSKSATESIKNRRRIHGELKTYKEGINKNEEYRKQLDKKNELQKFQALWQLYHLEQQKEELTDKLSALNSEISSLKGKINNEMKSLQRSKSSFVKESAVISKQKSKLDYIFKDKEKLVSDLRLIKVPQQAAGKRISHIEKRIESLQKDLQRQKTYVERFETQLKVVTRSKEAFEEEIKQSARNYDKFKLNENDLKTYNCLHEKYLTEGGSILEEKIAVLNNDKREIQEELERFNKRADISKRRITEELSITGEKLDTQLNDLRVSLNEKNALHTERLHELKKLQSDIESANNQEYDLNFKLRETLVKIDDLSANQRETMKERKLRENIAMLKRFFPGVKGLVHDLCHPKKEKYGLAVSTILGKNFDSVIVENLTVAQECIAFLKKQRAGTASFIPLDTIETELPTLSLPDSQDYILSINAIDYEPEYEKAMQYVCGDSIICNTLNIAKDLKWKKGIRGKLVTIEGALIHKAGLMTGGISGDANNRWDKEEYQSLMSLKDKLLIQIDELSNGQRSNSIRAREVENSVSLLNSDIANLRTQVTQQKRSLDENRLEIKYHNDLIEKEIQPKITELKKKLDDLENTKDNLVKEKEALQNNIFKEFTSKIGFTIKEYENHSGELMRQQSKELQQLQKQILTVENKLQFETDRLSTTQRRYEKAQKDLENAQVEMKSLEEQEYAIEMKIGSIESKLEEHKNHLDELQKKFVTKQSELNSSEDILEDMNSNLQVLKRERDGIKEDIEKFDLERVTALKNCKISNINIPISSETTIDDLPISSTDNEAITISNSIDINYKGLPKKYKENNTDSARKELEQKIHEVEEILNELQPNARALERYDEAEGRFEVINNETEQLKAEEKKILNQFLKIKKKRKELFEKTFDYVSDHLDAIYRELTKNPNSNVELAGGNASLTIEDEDEPFNAGIKYHATPPLKRFKDMEYLSGGEKTVAALALLFAINSYQPSPFFVLDEVDAALDITNVQRIAAYIRRHRNPDLQFIVISLKNTMFEKSDALVGVYRQQQENSSKIITLDLSNYAE
notes: Smc1, budding yeast cohesin subunit; PCR amplified Smc1-encoding genomic DNA; also called cohesin subunit Smc1; source: co-purified (IgG agarose, heparin, Superose 6)
